Assay results published in paper PMC2943039.

Target: PCNA (Proliferating Cell Nuclear Antigen) (UniProt P12004)
Assay: PCNA-bead pull-down, anti-FEN1 blot
Conditions: reference: wild type, kinase-treated; sites S187

binding against the reference: stronger
Substance: FEN1 (flap endonuclease 1) (from UniProt P39748) S187A, kinase-treated
